Consider 10 molecules from publication PMC6180485, “Elongation/Termination Factor Exchange Mediated by PP1 Phosphatase Orchestrates Transcription Termination” (Cell Reports, 2018).

B1: S. pombe Seb1 CID1-148 (domain or fragment)
chain: MSGIAEFDGILDSLEHSKTGISGSKILKLTNLSMENVSENAQFVASVYKYAKRAPVTHKLGALYILDSIVRSFQDGAKKNNESFENPVDASFSGGWCKAAEITDSLVADAIQHAPSAHLPKILKLCDIWEKASTFPPEKLESLRSKLK
B2: S. cerevisiae Rtt103 CID (domain or fragment)
chain: MPFSSEQFTTKLNTLEDSQESISSASKWLLLQYRDAPKVAEMWKEYMLRPSVNTRRKLLGLYLMNHVVQQAKGQKIIQFQDSFGKVAAEVLGRINQEFPRDLKKKLSRVVNILKERNIFSKQVVNDIERSLKTESSPVEALVLPQKLKDFAKDYEKLVKMHH
B7: Full-length Seb1 with C-terminal His8-tag (natural protein, S. pombe, UniProt Q9UTE3 1-620, looked up)
chain: MSGIAEFDGILDSLEHSKTGISGSKILKLTNLSMENVSENAQFVASVYKYAKRAPVTHKLGALYILDSIVRSFQDGAKKNNESFENPVDASFSGGWCKAAEITDSLVADAIQHAPSAHLPKILKLCDIWEKASTFPPEKLESLRSKLKDAMASTEPVSVDSAAAPSQSTNPEGNGGSVGSQAAAPTSRPVENDAASILEALAAFAQKAPVPSAAEESVSTPPQPAVAPSVSAVVPNLPVHPATAINAQSQSGNPLSNPLFQPSNVPQSIPSGPMGMKTGSVNDTQSQQITLMNVLASQNVPPAQIDSIMKAAFPNYNAPFQPAGVGSVPLPAPTSSQSLRLGSLHRSRSPSPRSGRPRRSPSPSHLSIPSTLPPADGVPKPTPDGFPRRFERDPTIPPDSIKVYSRTLFLGGITRSVREPVLRSMFERFGSVQSLILNHNYRHGFLKMFRRDAAEKAQVAMENVPFADTTIRTKWGVGFGPRECSDFSTGISVIPIRLLTDADRTWLVTAEYGGTGGLPITPGIALDEPDIEIGLGISSKAISKRGKDFAMRRDERFRGRKPYRGGPPIHHGERHFDSGNDWHGNPSTVPPPTNPYNPGYPYMDPNYSSGYVSQPPWQPQ
notes: Seb1, S. pombe, full length; fractions containing monomeric Seb1 were used; also called Seb1(full-length)-His8; recombinant Seb1; source: E. coli Rosetta, purified (Ni-NTA, Superdex 200); not shown: His8, C-terminal, kept
B9: S. cerevisiae Nrd1 CID1-152 (domain or fragment)
chain: MQQDDDFQNFVATLESFKDLKSGISGSRIKKLTTYALDHIDIESKIISLIIDYSRLCPDSHKLGSLYIIDSIGRAYLDETRSNSNSSSNKPGTCAHAINTLGEVIQELLSDAIAKSNQDHKEKIRMLLDIWDRSGLFQKSYLNAIRSKCFAM

Experiment [1] concerns the target T1, Double-repeated Ser5P (Schizosaccharomyces pombe).
T1 chain: {FAM}-YSPT[pS]PSYSPT[pS]PS
Description: FP.

Experiment [2] concerns the target B7. The experiment can be described thus: cross-linking; BS3 lysine-lysine cross-linking of reconstituted Seb1:Pol II (6:1 or 4:1 molar ratio) in CB buffer (50 mM HEPES pH 7.6, 150 mM NaCl), 30 min at 4 °C, mass spectrometry (pLink). The conditions noted are these: both partners purified.
Experiment [3] deals with B9. Description: FP.
The target in experiment [4] is B1. The experiment can be described thus: FP.
The target in experiment [5] is T2, S. cerevisiae Pcf11 CID1-144 (S. cerevisiae, UniProt P39081 1-144).
T2 chain: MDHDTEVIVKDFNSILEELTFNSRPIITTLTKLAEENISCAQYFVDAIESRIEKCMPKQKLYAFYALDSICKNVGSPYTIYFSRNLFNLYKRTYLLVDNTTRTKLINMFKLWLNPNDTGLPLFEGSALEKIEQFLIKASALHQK
The experiment can be described thus: FP.

Experiment [6] addresses B2. Description: FP.
Experiment [7] deals with T3, S. pombe Pcf11 CID1-139 with an N-terminal His6-SUMO tag (S. pombe).
T3 chain: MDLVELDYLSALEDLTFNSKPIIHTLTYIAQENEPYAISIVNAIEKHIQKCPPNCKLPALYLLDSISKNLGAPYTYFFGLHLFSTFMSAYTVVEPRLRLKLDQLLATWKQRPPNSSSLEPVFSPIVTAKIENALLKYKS
The experiment can be described thus: FP.

In experiment [8] the target is T4, Rpb2, subunit of S. pombe Pol II (S. pombe, UniProt Q02061 1-1210).
T4 construct: Rpb2, RNA polymerase II subunit, S. pombe; stood in the assay as a subunit of m11; source: endogenous, S. pombe (Rpb9-Flag strain), purified as part of Pol II (anti-Flag M2 agarose, HiTrap Q)
T4 sequence (Q02061 whole entry): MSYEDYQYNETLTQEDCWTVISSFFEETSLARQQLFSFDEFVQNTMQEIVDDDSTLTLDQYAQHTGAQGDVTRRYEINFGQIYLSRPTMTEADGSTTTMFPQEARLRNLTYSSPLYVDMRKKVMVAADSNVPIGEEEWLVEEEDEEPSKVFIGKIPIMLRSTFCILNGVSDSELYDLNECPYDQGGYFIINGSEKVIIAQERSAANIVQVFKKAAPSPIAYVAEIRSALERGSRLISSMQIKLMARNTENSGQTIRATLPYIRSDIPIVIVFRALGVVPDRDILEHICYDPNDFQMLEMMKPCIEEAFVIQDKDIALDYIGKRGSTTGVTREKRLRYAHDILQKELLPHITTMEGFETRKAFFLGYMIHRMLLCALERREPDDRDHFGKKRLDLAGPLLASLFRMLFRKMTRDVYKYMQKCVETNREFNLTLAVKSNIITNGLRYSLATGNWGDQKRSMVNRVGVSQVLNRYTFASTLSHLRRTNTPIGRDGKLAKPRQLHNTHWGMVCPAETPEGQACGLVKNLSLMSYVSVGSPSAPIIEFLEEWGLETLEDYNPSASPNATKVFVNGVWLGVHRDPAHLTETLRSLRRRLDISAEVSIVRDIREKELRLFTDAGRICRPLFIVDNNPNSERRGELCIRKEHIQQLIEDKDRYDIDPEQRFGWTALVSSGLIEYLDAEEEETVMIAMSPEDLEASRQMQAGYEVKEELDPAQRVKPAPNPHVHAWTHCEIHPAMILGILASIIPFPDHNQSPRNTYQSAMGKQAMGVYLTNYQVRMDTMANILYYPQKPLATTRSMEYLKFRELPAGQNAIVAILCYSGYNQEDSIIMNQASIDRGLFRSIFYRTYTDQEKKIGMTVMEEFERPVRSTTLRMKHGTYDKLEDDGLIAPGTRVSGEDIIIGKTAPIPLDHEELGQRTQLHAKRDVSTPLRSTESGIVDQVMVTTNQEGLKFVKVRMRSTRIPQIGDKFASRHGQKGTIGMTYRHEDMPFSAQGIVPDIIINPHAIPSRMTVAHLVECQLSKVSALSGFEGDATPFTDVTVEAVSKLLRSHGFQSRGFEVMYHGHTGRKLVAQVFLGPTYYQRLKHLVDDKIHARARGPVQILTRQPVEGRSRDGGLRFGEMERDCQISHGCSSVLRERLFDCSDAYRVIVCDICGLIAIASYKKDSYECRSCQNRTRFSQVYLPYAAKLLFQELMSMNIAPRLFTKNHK
Description: cross-linking; BS3 lysine-lysine cross-linking of reconstituted Seb1:Pol II (6:1 or 4:1 molar ratio) in CB buffer (50 mM HEPES pH 7.6, 150 mM NaCl), 30 min at 4 °C, mass spectrometry (pLink). The conditions noted are these: both partners purified.

Experiment [9] addresses T5, Rpb1, subunit of S. pombe Pol II (S. pombe, UniProt P36594 1-1752, CTD phosphorylated (Thr4P, Tyr1P, Ser2P, Ser5P detected by western blot)).
T5 construct: Rpb1, largest subunit of RNA polymerase II, S. pombe; stood in the assay as a subunit of m11; source: endogenous, S. pombe (Rpb9-Flag strain), purified as part of Pol II (anti-Flag M2 agarose)
The description is as above. The conditions noted are these: both partners purified.

Non-standard residues stand in square brackets, D forms with d. No end group written: not given here. pS = N[C@@H](COP(=O)(O)O)C(=O)O; FAM = 5'-fluorescein amidite Some results are limits rather than exact numbers.

T5 sequence (P36594 whole entry): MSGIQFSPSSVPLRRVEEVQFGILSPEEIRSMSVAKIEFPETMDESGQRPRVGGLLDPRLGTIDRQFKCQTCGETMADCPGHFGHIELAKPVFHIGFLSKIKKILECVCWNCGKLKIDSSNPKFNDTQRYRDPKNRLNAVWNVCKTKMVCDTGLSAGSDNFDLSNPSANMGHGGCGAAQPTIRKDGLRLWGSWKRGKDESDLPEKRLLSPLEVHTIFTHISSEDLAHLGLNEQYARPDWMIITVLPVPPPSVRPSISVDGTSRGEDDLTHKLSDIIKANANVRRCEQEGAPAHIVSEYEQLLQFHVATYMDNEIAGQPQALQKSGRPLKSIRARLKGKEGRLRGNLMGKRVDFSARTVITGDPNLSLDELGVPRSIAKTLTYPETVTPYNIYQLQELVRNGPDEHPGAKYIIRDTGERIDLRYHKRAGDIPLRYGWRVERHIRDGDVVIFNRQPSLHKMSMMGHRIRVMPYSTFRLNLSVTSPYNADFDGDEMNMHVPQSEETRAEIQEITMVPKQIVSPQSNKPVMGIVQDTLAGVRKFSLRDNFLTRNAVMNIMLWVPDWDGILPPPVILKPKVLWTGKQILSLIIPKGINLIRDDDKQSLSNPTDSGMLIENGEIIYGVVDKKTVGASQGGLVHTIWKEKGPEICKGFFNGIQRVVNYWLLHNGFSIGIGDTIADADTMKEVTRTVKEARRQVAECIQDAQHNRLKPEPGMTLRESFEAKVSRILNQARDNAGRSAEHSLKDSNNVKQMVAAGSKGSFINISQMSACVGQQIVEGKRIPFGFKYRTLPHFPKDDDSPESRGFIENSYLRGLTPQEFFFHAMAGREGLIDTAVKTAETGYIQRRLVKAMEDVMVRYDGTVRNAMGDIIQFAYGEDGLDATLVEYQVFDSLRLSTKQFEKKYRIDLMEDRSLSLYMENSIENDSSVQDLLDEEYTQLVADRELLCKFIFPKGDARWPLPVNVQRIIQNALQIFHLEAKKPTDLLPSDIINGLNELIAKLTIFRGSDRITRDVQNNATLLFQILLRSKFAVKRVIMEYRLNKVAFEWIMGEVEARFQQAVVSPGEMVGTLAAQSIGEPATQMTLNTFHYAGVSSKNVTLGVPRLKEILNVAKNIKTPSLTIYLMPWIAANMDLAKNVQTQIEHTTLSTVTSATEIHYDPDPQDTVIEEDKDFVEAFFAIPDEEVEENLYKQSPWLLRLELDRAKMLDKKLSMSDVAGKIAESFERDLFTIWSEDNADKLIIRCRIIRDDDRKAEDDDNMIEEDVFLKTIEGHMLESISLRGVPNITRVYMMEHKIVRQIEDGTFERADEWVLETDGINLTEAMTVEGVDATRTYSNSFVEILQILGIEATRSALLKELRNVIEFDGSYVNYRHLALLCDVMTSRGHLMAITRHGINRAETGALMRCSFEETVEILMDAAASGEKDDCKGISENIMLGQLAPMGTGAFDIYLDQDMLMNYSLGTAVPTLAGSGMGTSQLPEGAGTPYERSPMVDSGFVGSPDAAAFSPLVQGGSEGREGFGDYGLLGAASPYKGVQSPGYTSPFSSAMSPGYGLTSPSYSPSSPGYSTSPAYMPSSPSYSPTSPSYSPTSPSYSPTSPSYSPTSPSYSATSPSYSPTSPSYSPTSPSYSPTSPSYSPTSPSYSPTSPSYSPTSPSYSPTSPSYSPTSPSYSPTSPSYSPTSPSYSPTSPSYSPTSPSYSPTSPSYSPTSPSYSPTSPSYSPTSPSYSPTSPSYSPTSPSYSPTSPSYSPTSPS

In experiment [1], B1 showed a Kd of 281 µM.

The molecule B2 registered a Kd in experiment [1] above 1000 µM.

B3: Rpb4, subunit of S. pombe Pol II (natural protein, UniProt O74825 1-135, looked up)
chain: MPRAIFEEDAAQLKLGPEFENEDMLTVSEAKILIETVLAQRARETNGEIPMTDVMKKTVAYFNVFARFKTAEATYACERILGNRFHKFERAQLGTLCCEDAEEARTLIPSLANKIDDQNLQGILDELSTLRKFQD
notes: Rpb4, RNA polymerase II subunit, S. pombe; stood in the assay as a subunit of m11; source: endogenous, S. pombe (Rpb9-Flag strain), purified as part of Pol II (anti-Flag M2 agarose, HiTrap Q)
In the case of B3, the binding result in [2] is “binds”.

B4: Rpb7, subunit of S. pombe Pol II (natural protein, UniProt O14459 1-172, looked up)
chain: MPFFLKELSLTISLHPSYFGPRMQDYLKAKLLADVEGTCSGQYGYIICVLDSNTIDIDKGRVVPGQGFAEFEVKYRAVLWRPFRGEVVDAIVTTVNKMGFFANIGPLNVFVSSHLVPPDMKFDPTANPPNYSGEDQVIEKGSNVRLKIVGTRTDATEIFAIATMKEDYLGVL
notes: Rpb7, RNA polymerase II subunit, S. pombe; stood in the assay as a subunit of m11; source: endogenous, S. pombe (Rpb9-Flag strain), purified as part of Pol II (anti-Flag M2 agarose, HiTrap Q)
B4: the binding result in experiment [2] is reported as “binds”.

B5: Rpc10, subunit of S. pombe Pol II (natural protein, UniProt P48011 1-63, looked up)
chain: MNHPTSTGGTAFNPPRPATMIYLCADCGARNTIQAKEVIRCRECGHRVMYKMRTKRMVQFEAR
notes: Rpc10, RNA polymerase subunit, S. pombe; stood in the assay as a subunit of m11; source: endogenous, S. pombe (Rpb9-Flag strain), purified as part of Pol II (anti-Flag M2 agarose, HiTrap Q)
In the case of B5, the binding result in experiment [2] is “binds”.

Consider {FAM}-YSPTSPSYSPTSPS (also: phospho-Ser2 of heptad, which repeat not given here) [FAM-labeled two-repeat CTD peptide, Ser2P], for which the Kd in experiment [3] is 126 µM; in experiment [4], 72.3 µM; in [5], 127 µM; in [6], 32.3 µM; in experiment [7], 48.1 µM.

B6: Rpb3, subunit of S. pombe Pol II (natural protein, UniProt P37382 1-297, looked up)
chain: MDSETHITIRNISKNSVDFVLTNTSLAVANSLRRVVLAEIPTVAIDLVEINVNTSVMPDEFLAHRLGMIPLDSSNIDEPPPVGLEYTRNCDCDQYCPKCSVELFLNAKCTGEGTMEIYARDLVVSSNSSLGHPILADPKSRGPLICKLRKEQEISLRCIAKKGIAKEHAKWSPTSAVAFEYDPWNKLQHTDYWFENDADAEWPKSKNADWEEPPREGEPFNFQEEPRRFYMDVESVGSIPPNEIMVQGLRILQEKLAVLVRDLDEEQPTQLSANELNMEENAEMNWSPYQNGEENTW
notes: Rpb3, RNA polymerase II subunit, S. pombe; stood in the assay as a subunit of m11; source: endogenous, S. pombe (Rpb9-Flag strain), purified as part of Pol II (anti-Flag M2 agarose, HiTrap Q)
Consider B6, for which the binding result in experiment [2] is given as “binds”.

For the molecule B7, the binding result in experiment [8] and in [9] was “binds” throughout.

B8: Rpb5, subunit of S. pombe Pol II (natural protein, UniProt Q09191 1-210, looked up)
chain: MSAEEKNIVRVFRAWKTAHQLVHDRGYGVSQAELDLTLDQFKAMHCGMGRNLDRTTLSFYAKPSNDSNKGTIYIEFAKEPSVGIKEMRTFVHTLGDHNHKTGILIYANSMTPSAAKIIATVTGQFTIETFQESDLIVNITHHELVPKHILLSPDEKKELLDRYKLRETQLPRIQLADPVARYLGLKRGEVVKIVRRSETSGRYNSYRICA
notes: Rpb5, RNA polymerase subunit, S. pombe; stood in the assay as a subunit of m11; source: endogenous, S. pombe (Rpb9-Flag strain), purified as part of Pol II (anti-Flag M2 agarose, HiTrap Q)
With B8, the binding result in experiment [2] is “binds”.

In [1], B9 came in with a Kd of 65.8 µM.

One may read the Kd as a measure of binding affinity in units of concentration.
